Measurements: article PMC11259171, “Huntingtin is an RNA binding protein and participates in NEAT1-mediated paraspeckles”

Target: mHTT-HAP40 Q54 (expanded mutant huntingtin with HAP40) (UniProt P42858;P23610 1-38+=QQQQQQQQQQQQQQQQQQQQQQQQQQQQQQQQQ+39-3142;1-371, internal_change)
Assay: fluorescence polarization (method implied); 20 mM Hepes pH 7.4, 50 mM KCl, 2 mM MgCl2, 1 mM TCEP, 2.5% glycerol, 0.005% Tween 20; SPR 20 C, EMSA on ice, FP 10 min (temperature not stated)
Conditions: protein: recombinant; copies: 1;1; label: 5'-FAM (FP, EMSA); biotin (SPR)

mHTT-HAP40 Q54 (expanded mutant huntingtin with HAP40), sequence (P42858 other isoform, or with tags, fused parts or gaps | mutant, chain 1 of 2): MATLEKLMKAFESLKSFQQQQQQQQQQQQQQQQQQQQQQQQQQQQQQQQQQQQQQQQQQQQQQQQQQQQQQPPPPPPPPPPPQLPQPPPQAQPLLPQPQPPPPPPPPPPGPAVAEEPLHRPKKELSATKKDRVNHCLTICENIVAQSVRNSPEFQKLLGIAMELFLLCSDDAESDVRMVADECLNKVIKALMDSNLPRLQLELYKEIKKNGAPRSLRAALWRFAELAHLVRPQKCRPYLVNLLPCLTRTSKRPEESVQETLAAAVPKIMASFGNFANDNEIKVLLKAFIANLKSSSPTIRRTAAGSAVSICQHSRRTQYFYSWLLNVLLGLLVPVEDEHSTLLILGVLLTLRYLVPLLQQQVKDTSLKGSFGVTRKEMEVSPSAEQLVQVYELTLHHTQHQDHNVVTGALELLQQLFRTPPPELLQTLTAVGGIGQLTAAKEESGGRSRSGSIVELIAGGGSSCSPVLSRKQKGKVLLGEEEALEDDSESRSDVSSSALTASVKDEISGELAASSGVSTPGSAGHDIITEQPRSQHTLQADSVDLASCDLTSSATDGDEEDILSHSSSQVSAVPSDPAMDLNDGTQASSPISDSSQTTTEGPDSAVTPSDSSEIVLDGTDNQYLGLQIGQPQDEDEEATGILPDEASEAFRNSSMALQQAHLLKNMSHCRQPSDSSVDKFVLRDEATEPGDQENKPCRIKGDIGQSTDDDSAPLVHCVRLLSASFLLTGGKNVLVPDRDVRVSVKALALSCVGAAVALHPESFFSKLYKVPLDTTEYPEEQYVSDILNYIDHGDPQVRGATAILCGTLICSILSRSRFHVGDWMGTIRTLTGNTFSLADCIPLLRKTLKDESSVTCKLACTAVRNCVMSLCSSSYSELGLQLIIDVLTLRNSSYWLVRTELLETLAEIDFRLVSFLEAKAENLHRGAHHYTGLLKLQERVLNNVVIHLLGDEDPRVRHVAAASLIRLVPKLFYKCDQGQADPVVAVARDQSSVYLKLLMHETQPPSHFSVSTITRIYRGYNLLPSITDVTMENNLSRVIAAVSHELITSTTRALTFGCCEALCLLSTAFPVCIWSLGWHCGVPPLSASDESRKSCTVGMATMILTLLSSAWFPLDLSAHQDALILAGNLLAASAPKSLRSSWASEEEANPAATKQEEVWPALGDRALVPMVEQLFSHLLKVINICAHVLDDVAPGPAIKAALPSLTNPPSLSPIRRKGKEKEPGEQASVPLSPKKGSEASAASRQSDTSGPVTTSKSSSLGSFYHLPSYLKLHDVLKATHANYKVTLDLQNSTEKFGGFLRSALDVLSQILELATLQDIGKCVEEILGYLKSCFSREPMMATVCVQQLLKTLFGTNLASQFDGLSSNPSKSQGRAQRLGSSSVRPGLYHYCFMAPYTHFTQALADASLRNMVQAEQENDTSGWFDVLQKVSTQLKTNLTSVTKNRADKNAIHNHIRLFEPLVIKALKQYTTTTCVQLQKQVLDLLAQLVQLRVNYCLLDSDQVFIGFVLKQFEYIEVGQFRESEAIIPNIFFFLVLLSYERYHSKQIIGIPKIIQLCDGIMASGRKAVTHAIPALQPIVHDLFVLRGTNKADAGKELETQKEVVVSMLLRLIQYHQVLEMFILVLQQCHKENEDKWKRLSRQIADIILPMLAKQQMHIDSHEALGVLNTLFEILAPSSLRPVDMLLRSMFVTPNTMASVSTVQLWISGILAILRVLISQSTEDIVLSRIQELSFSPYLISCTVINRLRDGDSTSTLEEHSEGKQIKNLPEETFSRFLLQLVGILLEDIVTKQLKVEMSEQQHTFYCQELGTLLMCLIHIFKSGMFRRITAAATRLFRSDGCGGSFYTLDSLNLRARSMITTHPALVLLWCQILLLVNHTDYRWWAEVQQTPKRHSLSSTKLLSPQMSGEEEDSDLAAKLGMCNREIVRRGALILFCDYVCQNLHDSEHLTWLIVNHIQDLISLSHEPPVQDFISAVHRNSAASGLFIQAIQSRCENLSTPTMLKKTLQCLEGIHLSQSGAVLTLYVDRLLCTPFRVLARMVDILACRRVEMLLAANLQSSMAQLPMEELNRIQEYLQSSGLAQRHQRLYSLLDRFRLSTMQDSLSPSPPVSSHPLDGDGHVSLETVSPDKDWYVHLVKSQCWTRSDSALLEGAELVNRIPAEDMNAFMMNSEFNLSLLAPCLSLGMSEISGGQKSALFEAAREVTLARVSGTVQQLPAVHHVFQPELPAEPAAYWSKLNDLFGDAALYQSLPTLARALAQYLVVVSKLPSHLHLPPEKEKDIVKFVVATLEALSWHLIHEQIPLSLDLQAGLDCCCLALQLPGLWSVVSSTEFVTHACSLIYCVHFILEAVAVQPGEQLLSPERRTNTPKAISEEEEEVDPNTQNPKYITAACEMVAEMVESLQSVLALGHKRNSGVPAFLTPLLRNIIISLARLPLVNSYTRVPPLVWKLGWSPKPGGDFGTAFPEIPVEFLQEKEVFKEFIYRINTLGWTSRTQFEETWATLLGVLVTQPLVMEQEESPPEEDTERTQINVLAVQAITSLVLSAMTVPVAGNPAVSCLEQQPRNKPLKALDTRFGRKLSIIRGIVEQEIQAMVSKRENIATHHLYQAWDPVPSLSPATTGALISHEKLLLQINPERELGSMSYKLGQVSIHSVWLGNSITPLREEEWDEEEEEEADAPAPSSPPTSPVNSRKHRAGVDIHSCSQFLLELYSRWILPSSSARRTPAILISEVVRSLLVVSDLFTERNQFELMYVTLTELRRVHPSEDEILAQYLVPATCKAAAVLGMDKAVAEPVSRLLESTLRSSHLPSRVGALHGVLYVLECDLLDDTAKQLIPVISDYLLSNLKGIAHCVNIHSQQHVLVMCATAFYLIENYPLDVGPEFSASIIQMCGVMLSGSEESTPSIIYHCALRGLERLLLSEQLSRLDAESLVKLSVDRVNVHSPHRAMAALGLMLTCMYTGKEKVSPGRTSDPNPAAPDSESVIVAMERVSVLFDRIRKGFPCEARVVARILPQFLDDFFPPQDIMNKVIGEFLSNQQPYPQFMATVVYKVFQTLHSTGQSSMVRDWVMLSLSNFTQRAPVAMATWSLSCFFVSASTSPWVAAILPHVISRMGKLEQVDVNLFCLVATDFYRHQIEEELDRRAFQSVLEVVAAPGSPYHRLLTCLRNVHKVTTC
mHTT-HAP40 Q54 (expanded mutant huntingtin with HAP40), sequence (P23610 whole entry, change not shown, chain 2 of 2): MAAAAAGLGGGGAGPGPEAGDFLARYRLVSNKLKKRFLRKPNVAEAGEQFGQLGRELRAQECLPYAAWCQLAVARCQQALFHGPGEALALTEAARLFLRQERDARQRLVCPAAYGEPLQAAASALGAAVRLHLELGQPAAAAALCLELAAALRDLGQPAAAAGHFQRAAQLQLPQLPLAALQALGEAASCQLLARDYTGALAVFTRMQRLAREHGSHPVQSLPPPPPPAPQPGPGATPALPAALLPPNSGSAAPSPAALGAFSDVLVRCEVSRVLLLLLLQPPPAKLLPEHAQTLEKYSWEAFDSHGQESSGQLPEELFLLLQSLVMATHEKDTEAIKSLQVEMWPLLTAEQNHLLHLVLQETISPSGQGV

B1: 100-mer random ssRNA (ssRNA)
RNA: CACGUAUGAGAAGGUAUUUGCCCGAUAAUCAAUACCCCAGGCUUCUAACUUUUUCCACUCGCUUGAGCCGGCUAGGCCUUUCUGCCCGAAGUUUCGAUGG
Work on B1 yielded a Kd of 500 ± 300 nM.
